Measurements from the supplement of paper PMC12042874.
± gives the uncertainty stated by the source.

test: amyloid nucleation score (Sup35N fusion, yeast selection) (log enrichment); library NNK2; higher = more nucleation; inactive = no reads after selection
Procedure, shortened: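 The nucleation score equals the log enrichment of output over input reads from DiMSum, centred on the mode score of non-aggregating sequences. It was computed only for sequences with 100 or more input reads. The reads came from Illumina sequencing of plasmid inserts from psi-negative yeast expressing Sup35N fused to peptides of 20 random codons, induced with 100 μM copper sulfate for 24 hours and grown 7 days at 30°C without adenine and uracil.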

Substance | amyloid nucleation score
RCIYWHVTVIFIMDIWVRTY | 0.415 ± 0.17
MVCVELFWFARLSLPGA | 0.246 ± 1.1
RYMGGIWKSIRTS | 0.061 ± 0.21
EYYINFVNNTFCVDSLRSLD | 5.068 ± 0.035
AVEAYNMSNYLLRYISGSV | -0.109 ± 0.65
YDLSASLVFGMFVNDLRRSR | 5.68 ± 0.096
SRVSLYQML | -1.01 ± 0.34
RMRFYWWDVSMLYTCSYSDF | 1.04 ± 0.11
SVVLCTAFVQPC | 0.158 ± 0.45
RLALY | 1.45 ± 0.25
TSNRRTYGWHDQTCGQGVWY | 1.1 ± 0.29
TSSLYISMMVLL | 4.07 ± 0.074
CVECYFRCGLGITEVDTN | inactive
TRIVS | -0.415 ± 0.25
DRPALCSLCSETSVVNTLHL | 5.74 ± 0.064
KPFELEIRGKGQRHVEVV | 1.61 ± 0.26
SMNVRTKLDWSTTRVDSGLR | 0.662 ± 0.21
IYAGSSLTLWGDRDNKKCDR | -1.44 ± 1
THTSLLSLVP | -0.291 ± 0.76
GRNVMTKAPYCTCWANVLHS | 6.67 ± 0.075
ISQRNRSIAYYKMSLTRYGF | inactive
CLRLFTQSGFE | -0.362 ± 0.38
RKDLEVLNGLRICMVGSAPV | -0.055 ± 1.1
LEMFYRVPLPRCKTYLQFRC | 0.471 ± 0.62

Substance | amyloid nucleation score
SIFFARLVVEKSMIQLG | 0.21 ± 0.41
KGLASKAHSIGLCT | 1.01 ± 0.25
KHGSMVICKPAIYTVLT | -0.021 ± 0.63
VPIKALLPHSKFGNQSRFNY | 0.438 ± 0.4
VAVDLRGIDGNIYAFQAKIE | 2.97 ± 0.068
YDYFTLSTTGLWLAIYMWWC | 0.287 ± 0.56
TGLWDVCQVLIRFRNVFWRN | 3.06 ± 0.079
VWVWCFR | 8.331 ± 0.042
LRMNYIAAVHSCAVLHHFNA | 3.13 ± 0.073
LTWFWMHSYSSFRIENHVDD | 2.18 ± 0.12
SSMLYTYVRLMNMNNIYVAS | 0.737 ± 0.62
SFNEWLSR | -0.391 ± 0.55
VLIALKLFWIVQWYICAICV | -0.099 ± 0.39
PYYYRLDFWHHNKKYNFGYY | -1.16 ± 1.1
GSYCQWIYF | 1.99 ± 0.22
CFIENILRFGSW | 3.1 ± 0.052
TFQSYRDESFSWSRLVSSQR | -0.477 ± 0.26
CRCGWKGDSFKISMKMRNWV | 5.36 ± 0.066
FKSLVVSLCIPSDMNNLKCS | -0.474 ± 0.79
SMQCPLAAQTDM | -0.301 ± 0.45
YYHYYFGFCDNM | 0.664 ± 0.33
PAVFRHHPGKHVRHGSSTTT | 0.73 ± 0.28
WRYDSWFKRKHCMLLYICQG | 0.003 ± 0.43
AGRNIGIHIVGLDRQRSSAN | 0.278 ± 0.31

Substance | amyloid nucleation score
LWRILVALFAISILRTLVMQ | 1.63 ± 0.2
QFPTCVHKPSCWDF | 0.291 ± 0.5
GAFSYEMTRLKALGFWPL | 5.87 ± 0.045
LTGLVSLPRCWTIWVPWREG | 1.43 ± 0.25
LNSRS | -0.436 ± 0.76
GVMIRKSARYYL | -0.275 ± 0.79
NSMNVEHNMYNLFIYMPSFV | 7.065 ± 0.07
MYLTCFWVGQDGKGRKDGGV | 5.62 ± 0.078
LTIFNYSFWKVDY | 0.91 ± 0.18
CCSIVSTYRKYLVNRTRWIF | -0.982 ± 0.42
DSILLSLCPTNCFKN | -0.148 ± 0.63
IMWRTERINNYVDSV | -0.846 ± 0.45
MDIFCYTGRPTSAKRAS | -1.05 ± 0.64
DVSLNRGVRPF | -0.123 ± 0.76
QETFDFCM | -1.65 ± 0.64
VVRMVHLSADFQGK | 5.26 ± 0.095
QCVGRASCANSVALYLCSVA | 0.06 ± 0.35
SLKRKGLVHTPCIFRVRCLT | 0.554 ± 0.81
VYSLYNDRYYC | -0.406 ± 0.31
SSIGKGFSNSYGHAYCKHTW | -0.124 ± 0.76
QKKLDLQ | -0.673 ± 1
LLFTGNLGFTVSRSLSRRDR | 6.945 ± 0.069
TWRYHFADVGSILDLVG | -0.277 ± 0.4
